Source: the nanobody polyreactivity screen of Harvey et al. (2022)

Test: yeast display, Sf9 membrane polyspecificity reagent, FACS + sequencing; frameworks hold sequencing errors
In short: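 Nanobodies came from a synthetic yeast display library in Saccharomyces cerevisiae BJ5465, induced with galactose for 36–48 hours and stained for 1 hour at 4 °C with 10% biotinylated, detergent-solubilized Sf9 membrane reagent. Cells were enriched on streptavidin microbeads and then FACS-sorted, with low and high (top ~1%) gates set on anti-HA fluorescence for expression and streptavidin fluorescence for reagent binding. Each polyreactivity label reflects the gate a clone came from. Genes were amplified by colony PCR, sequenced by MiSeq 2 × 250 and filtered by CDR length.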

QVQLVESGGGLVQAGGSLRLSCAASGRIFSVYAMGWYRQEPGKERELVAAITRNGATTYYADSVKGRFTISRDNAKNTVYLQMNSLKPEDTAVYYCAARPLFASRTKYGYWGQGTQVTVSS
polyreactivity (PSR sort gate): high polyreactivity

QVQLVESGGGLVQAGGSLRLSCAASGRIFSVYTKGWYRQAPGKERELVATISSGGRTNYADSVKGRFTISRDNAKNTVYLQINSLKPEDSAVYYCAAVPYGFVGYDDYWGQGSQVTVSS
polyreactivity (PSR sort gate): low polyreactivity

QVQLVESGGGLVQAGGSLRLSCAASGRIFSVYTMGLYRQAPGKERELGAAISSGGRTYYADSVKGRFTISRDNAKNTVYLQMNSLKPEDTAVYYCAAGSHYAFYYWGQGTQVTVSS
polyreactivity (PSR sort gate): high polyreactivity

QVQLVESGGGLVQAGGSLRLSCAASGRIFSWYAMGWYRQAPGKERELVAAITVRGSTYYADSVKGRFTISRDNAKNTVYLQMNSLKPEDTAVYYCAAGGYPGTTYYGYDYWGQGTQVTVSS
polyreactivity (PSR sort gate): low polyreactivity

QVQLVESGGGLVQAGGSLRLSCAASGRIFSWYAMGWYRQAPGKERELVARITSGVSTNYADSVKGRFTISRDNEKNTVYLQMNSLKPEDTAVYDCAADDYSCLYYSSTYRYEYWGQGTQVTVSS
polyreactivity (PSR sort gate): low polyreactivity

QVQLVESGGGLVQAGGSLRLSCAASGRIFSYNAMGWYRQAPGKERDLVASISGGGSTYADSVKGRFTISRDNAKNTVYLQMNRLKPADTAVYYCNAVHFSYEYDYWGQGTQVTVSS
polyreactivity (PSR sort gate): high polyreactivity

QVQLVESGGGLVQAGGSLRLSCAASGRIFSYNARGWYRQAPGKEWELVAAISSGGSTYYADSVKGRFTISRDNAKKTVYLQMNSLKPEDTAVYYCAADRRYYSDLYYWGQGTQVTVSS
polyreactivity (PSR sort gate): low polyreactivity

QVQLVESGGGLVQAGGSLRLSCAASGRIFSYNTMGWYRQAPGKERELVAAISCSGGSTSYADSVKGRFTISRDNAKNTVYLQMNSLKPEDTAVYYCATGSKRNPFYRGNYWGQGTQVTVSS
polyreactivity (PSR sort gate): low polyreactivity

QVQLVESGGGLVQAGGSLRLSCAASGRIFSYYAMGWSRQAPGNERELVAAITWSGGRTYYADSVKGRFTISRDNAKNTVYLQMNSLNPEDTAVYYCAADYYYGSLWDNKLGYWGQGTQVTVSS
polyreactivity (PSR sort gate): high polyreactivity

QVQLVESGGGLVQAGGSLRLSCAASGRIFSYYAMGWYRQAPGKDRELVAAISRSGGRTYYADSVKGRFTISRDNAKNTVYLQMNSLNPEDTAVYYCAATFSRGYDYWGQGTQVTVSS
polyreactivity (PSR sort gate): high polyreactivity

QVQLVESGGGLVQAGGSLRLSCAASGRIFSYYAMGWYRQAPGKERELVAAISRSGVRTYYADSVKGRFTISRDNAKNTVYLQMNSLKAEDTAVYYCAASGKRFAYIKGRSRPAYGYDYWGQGTQVTVSS
polyreactivity (PSR sort gate): high polyreactivity

QVQLVESGGGLVQAGGSLRLSCAASGRIFSYYAMGWYRQAPGKERELVAAISRTGGTTYYADSVKGRFTISRDTAKNTVFLQMNSLKPEDTAVYYCNAVKAPYLRYDYWGQGTQVTVSS
polyreactivity (PSR sort gate): high polyreactivity

QVQLVESGGGLVQAGGSLRLSCAASGRIFSYYAMGWYRQAPGKERELVASITWSGGSTYYADSVKGRFTISRDYAKNTVYLQMNRLKPEDTAVYYCNTAVLAPYDSGYWGQGTQVTVSS
polyreactivity (PSR sort gate): low polyreactivity

QVQLVESGGGLVQAGGSLRLSCAASGRIFSYYDMGWYRQAPGKEREFVAGITWNGGSTYYADSVKGRFTISRDNAKNTVYLQMNSLKPEDTAVYYCAAGVWRTRDWTYYYWGQGTQVTVSS
polyreactivity (PSR sort gate): high polyreactivity

QVQLVESGGGLVQAGGSLRLSCAASGRIFSYYTMGWYRQAPGKERELVAAITSGDSTNYADSVKGRFTISRDNAKNTVYLQMNSLKPEDTAVYYCNARYSGWRSRVGSSHRPDGYWGQGTQVTVSS
polyreactivity (PSR sort gate): high polyreactivity

QVQLVESGGGLVQAGGSLRLSCAASGRIFTAYTMGWYRQAPGKERELVAAISTSGTSTYYADSVKGRFTISRDNAKNTVYLQMNSLKPEDTAVYYCATDYYYYPHSQYDYWGQGTQVTVSS
polyreactivity (PSR sort gate): low polyreactivity

QVQLVESGGGLVQAGGSLRLSCAASGRIFTCYAMGWYRQAPGKERELVAAISSAGRTYYADSVKGRFTISRDNAKNTVYLQMNSLKPEDSAVYYCAKVSKYRHFYTFDYWGQGTQVTVSS
polyreactivity (PSR sort gate): high polyreactivity

QVQLVESGGGLVQAGGSLRLSCAASGRIFTDYAMGWYRQAPGKERELVAAISSGGSTYYADSVKGRFTISRDNAKNTVYLQMNSLKPEDTAVYFCAAELFYGRSSSGYYYWGQGTQVTVSS
polyreactivity (PSR sort gate): high polyreactivity

QVQLVESGGGLVQAGGSLRLSCAASGRIFTGYAMGWYRQAPGKERELVAAISSSGGTTYYADSVKGRFTISRDNAKNTVYLQMNSLKPEDTAVYYCATDYSYSVDALKYLLYDYWGQGTQVTVSS
polyreactivity (PSR sort gate): low polyreactivity

QVQLVESGGGLVQAGGSLRLSCAASGRIFTGYAMGWYRQAPGKEREVVAAISRGGSTNYADSVKGRFTISRDNAKNTVYLQMNSLKPEDTAVYYCAAGVHWDRGDYWGQGTQVNVSS
polyreactivity (PSR sort gate): low polyreactivity

QVQLVESGGGLVQAGGSLRLSCAASGRIFTGYVMGWYRQAPGKERELVAAITYTGGSTFYADSVKGRFTISRDNAKNTVYLQMNSLKPEDTAVYYCAADESPYFLDIVTYYEFDYWGQGTQVTVSS
polyreactivity (PSR sort gate): low polyreactivity

QVQLVESGGGLVQAGGSLRLSCAASGRIFTHNAMGWYRQAPGKERELVAAISYSGVSTYYADSVKGRFTISRDNAKNTVYLQMNSLKPEDTAVYYCAARSRSWRQRYGDFDYWGQGTQVTVSS
polyreactivity (PSR sort gate): low polyreactivity

QVQLVESGGGLVQAGGSLRLSCAASGRIFTHNAMGWYRQAPGKERELVAAISYSGVSTYYADSVKGRFTISRDNAKNTVYLQMNSLKPEDTAVYYCNALIQSWRARIRRYYWGQGTQVTVSS
polyreactivity (PSR sort gate): low polyreactivity

QVQLVESGGGLVQAGGSLRLSCAASGRIFTINAMGWYRQAPGKERELVATISDRGGSTYYADTVKGRFTISRDNAKNTVYLQMNSLKPEDTAVYYCAARWGRGLEFDYWGQGTQVTVSS
polyreactivity (PSR sort gate): high polyreactivity

QVQLVESGGGLVQAGGSLRLSCAASGRIFTIYAMGWYRQAPAKARELVAAISDRGTRTYYADSVKGRFTISRDNAKNTVFLKMNSLKPEDTAVYYCASDALYTYGYDYWGKGTQVTVSS
polyreactivity (PSR sort gate): low polyreactivity

QVQLVESGGGLVQAGGSLRLSCAASGRIFTLYAMGWYRQAPGKEREFVAAINRGGSTNYADSVKGRFTISRDNAKNTVYLQMNSLKPEDTAVYYCAAKTTSRFRTYSYDYWGQGTQVTVSS
polyreactivity (PSR sort gate): high polyreactivity

QVQLVESGGGLVQAGGSLRLSCAASGRIFTLYAMGWYRQAPGKERELVAGISRSGGSTYYADSVKGRFTISRDNAKNTVYFQMNSLKPEDTAVYYCNAVPIYYAWRRNKPFDYWGQGTQVTVSS
polyreactivity (PSR sort gate): low polyreactivity

QVQLVESGGGLVQAGGSLRLSCAASGRIFTLYTMGWYRQAPGKERELVAAINRGGSTTYADSVKGRFTISRDNAKNTVYLQMNSLKPEDTAVYYCAAYRYTSRVYSYWRGYDYWGQGTQVTVSS
polyreactivity (PSR sort gate): high polyreactivity

QVQLVESGGGLVQAGGSLRLSCAASGRIFTNNPMGWYRQAPGQERELVAAISRSGGRTYYADSVKGRFTISRDNAKNTVYLQRNCLKPEDTAVYYCAAVHLYYGYNSPFTMDYWGQGTQVTVSS
polyreactivity (PSR sort gate): high polyreactivity

QVQLVESGGGLVQAGGSLRLSCAASGRIFTPYAMGWYRQAPGKEREFVATISFRGDSTYYADSVKGRFTISRDNAKNSVYLQMNSLKPEDTAVYYCAARQYGGYGYWGQGTQVTVSS
polyreactivity (PSR sort gate): high polyreactivity

QVQLVESGGGLVQAGGSLRLSCAASGRIFTPYAMGWYRQAPGKERELVAAISSSGGSTYYADSVKGRFTISRDNAKNTVYLQMNSLKPEDTAVYYCAAVHYRHVRYDYWGQATQVTVSS
polyreactivity (PSR sort gate): high polyreactivity

QVQLVESGGGLVQAGGSLRLSCAASGRIFTPYAMGWYRQAPGKERELVAVIRDGSTYYADSVKGRFTISRDNAKNTVYLQMNSLKPEDTAVYYCAVRHRYTRAYWGRDYWGQGTQVTVSS
polyreactivity (PSR sort gate): low polyreactivity

QVQLVESGGGLVQAGGSLRLSCAASGRIFTPYAMGWYRQARGKEREVVAVIRDGSTYYADSVKGSFTISRDNAKNTVYLQMNSLKPEDTAVYYCRYDIWVWWSGAYDYWGQGTQVTVSS
polyreactivity (PSR sort gate): low polyreactivity

QVQLVESGGGLVQAGGSLRLSCAASGRIFTQNAMGWNRQAPGKERELVAAISYSGVSTYYADSVKGRFTISRDNAKNTVYLQMNSLKPEDTAVFYCARRYWYPDAFYRYDYWGLGTQVTVSS
polyreactivity (PSR sort gate): low polyreactivity

QVQLVESGGGLVQAGGSLRLSCAASGRIFTQYAMGWYRPPPGKERELVAAINASDGSTYADSVKGRFTISRDNAKNTVYLQMKSLKPEDTAVYYCNVTGGPYDFTRWSEFDHWGQGTQVTVSS
polyreactivity (PSR sort gate): low polyreactivity

QVQLVESGGGLVQAGGSLRLSCAASGRIFTRYAMGWYRKEPGKERELVAAISYGGGGTYYADSVKGRFTISRDNAKNTVYLQMNSLKPEDTAVYYCATDDPLSQINEQGMDYWGQGTQVTVSS
polyreactivity (PSR sort gate): low polyreactivity

QVQLVESGGGLVQAGGSLRLSCAASGRIFTRYAMGWYRPAPGKERELVAVIRYSGGSTYYADSVKGRFTISRDNAKNTVYLQMNSLKPEDTAVYYCAAYARGVRRYRRYDYWGQGTQVTVSS
polyreactivity (PSR sort gate): high polyreactivity

QVQLVESGGGLVQAGGSLRLSCAASGRIFTRYAMGWYRQAPGKERELVAAISYGGGGTYYADSVKGRFTISRDNAKNTVYLQMNSLKPEDTAVYYCATDDPLSQINEQGMDYWGQGTQVTVSS
polyreactivity (PSR sort gate): low polyreactivity

QVQLVESGGGLVQAGGSLRLSCAASGRIFTRYAMGWYRQAPGKERELVAAITQRGGTTYYADSVKGRFTISRDNAKNTVYLQMNSLKPEDTAVDYCATRYRYYTERDYWGQGTQVTVSS
polyreactivity (PSR sort gate): high polyreactivity

QVQLVESGGGLVQAGGSLRLSCAASGRIFTRYAMGWYRQAPGKERELVATISRGGNTNYADSVKGRFTISRDNAKNTVYLQMNSLKPEDTAVYYCAKYPVSRVGGYGYWGQGTQVTVSS
polyreactivity (PSR sort gate): low polyreactivity

QVQLVESGGGLVQAGGSLRLSCAASGRIFTRYAMGWYRQAPGKERELVAVITRSGGSTYYADSVKGRFTISRDNAKNTVYLQMNSLKPEDTAVYYCAAKYYGEMYYWGQGTQVTVSS
polyreactivity (PSR sort gate): low polyreactivity

QVQLVESGGGLVQAGGSLRLSCAASGRIFTRYAMGWYRQAPGKERELVAVITRSGGSTYYADSVKGRFTLSRDNAKNTVYLQMNSLKPEDTAVYYCAAKYYGEMYYWGQGTQVTVSS
polyreactivity (PSR sort gate): low polyreactivity

QVQLVESGGGLVQAGGSLRLSCAASGRIFTRYTMGWYRQAPGKERQLVASITSSGSSSYYADSVKGRFTISRDYAKNTVYLQMNSLKPEDTAVYYCAARSRLRYLYDYWGHGTQVTVSS
polyreactivity (PSR sort gate): high polyreactivity
